Test results: US20190062438A1 (CSL, published 2019)

Experiments:
[1] = biological target: T1, human CD131 (human, UniProt P32927 17-897); assay: cell-based or functional assay
T1 sequence: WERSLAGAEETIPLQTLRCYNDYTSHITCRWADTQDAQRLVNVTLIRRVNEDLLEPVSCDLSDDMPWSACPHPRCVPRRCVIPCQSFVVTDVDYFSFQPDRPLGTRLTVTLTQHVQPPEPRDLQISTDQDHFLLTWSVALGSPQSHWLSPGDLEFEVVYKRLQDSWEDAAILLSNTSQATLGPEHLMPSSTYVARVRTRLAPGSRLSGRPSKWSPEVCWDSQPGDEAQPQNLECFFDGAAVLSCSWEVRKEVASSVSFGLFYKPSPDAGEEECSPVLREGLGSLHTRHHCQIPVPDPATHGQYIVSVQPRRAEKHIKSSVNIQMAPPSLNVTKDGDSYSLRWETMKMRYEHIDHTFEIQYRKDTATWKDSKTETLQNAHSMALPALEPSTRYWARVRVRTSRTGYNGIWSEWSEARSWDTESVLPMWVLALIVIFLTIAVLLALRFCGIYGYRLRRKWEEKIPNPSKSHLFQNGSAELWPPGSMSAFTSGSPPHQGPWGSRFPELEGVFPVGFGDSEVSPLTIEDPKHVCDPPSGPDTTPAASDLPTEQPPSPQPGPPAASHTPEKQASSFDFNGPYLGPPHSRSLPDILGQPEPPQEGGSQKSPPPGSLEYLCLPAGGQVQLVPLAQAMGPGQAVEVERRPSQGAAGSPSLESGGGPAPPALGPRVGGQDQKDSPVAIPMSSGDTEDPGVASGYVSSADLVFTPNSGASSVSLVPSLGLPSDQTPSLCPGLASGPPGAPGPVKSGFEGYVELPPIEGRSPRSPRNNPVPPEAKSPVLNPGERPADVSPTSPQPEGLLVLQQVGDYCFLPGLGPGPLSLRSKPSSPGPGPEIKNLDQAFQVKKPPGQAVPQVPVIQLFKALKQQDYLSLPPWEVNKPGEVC

[2] = biological target: T2, human IL-3R α-chain (human, UniProt P26951 19-378); assay: flow cytometry, transiently transfected cells
T2 construct: also called Hu-IL3R α chain
T2 sequence (P26951 19-378 limits assumed): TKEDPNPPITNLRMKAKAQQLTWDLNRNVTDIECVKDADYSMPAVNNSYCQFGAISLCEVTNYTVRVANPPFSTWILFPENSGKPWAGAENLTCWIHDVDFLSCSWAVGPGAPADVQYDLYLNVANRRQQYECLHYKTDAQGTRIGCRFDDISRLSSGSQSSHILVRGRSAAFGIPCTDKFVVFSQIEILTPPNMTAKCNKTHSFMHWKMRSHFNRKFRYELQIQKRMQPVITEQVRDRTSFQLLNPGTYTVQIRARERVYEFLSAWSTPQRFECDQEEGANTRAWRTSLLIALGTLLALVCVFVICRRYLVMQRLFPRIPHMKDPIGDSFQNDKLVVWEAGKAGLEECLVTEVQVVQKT

[3] = biological target: T3, human GM-CSFR α-chain (human, UniProt P15509 23-400); assay: flow cytometry, transiently transfected cells
T3 construct: whole, on cells; also called GMRα
T3 sequence (looked up): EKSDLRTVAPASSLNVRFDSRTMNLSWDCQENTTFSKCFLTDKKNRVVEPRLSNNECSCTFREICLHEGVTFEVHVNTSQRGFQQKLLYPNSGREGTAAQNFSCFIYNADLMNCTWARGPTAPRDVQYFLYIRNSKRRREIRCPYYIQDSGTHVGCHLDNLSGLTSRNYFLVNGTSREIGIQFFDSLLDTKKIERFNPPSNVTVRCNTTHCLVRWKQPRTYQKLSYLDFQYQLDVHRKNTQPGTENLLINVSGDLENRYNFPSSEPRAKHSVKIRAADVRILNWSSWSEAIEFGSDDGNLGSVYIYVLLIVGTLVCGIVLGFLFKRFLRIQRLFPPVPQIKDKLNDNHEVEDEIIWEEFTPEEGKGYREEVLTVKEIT

[4] = biological target: T4, human IL-5R α-chain (human, UniProt Q01344 21-420); assay: flow cytometry, transiently transfected cells
T4 construct: also called Hu-IL5R α chain isoform 1
T4 sequence: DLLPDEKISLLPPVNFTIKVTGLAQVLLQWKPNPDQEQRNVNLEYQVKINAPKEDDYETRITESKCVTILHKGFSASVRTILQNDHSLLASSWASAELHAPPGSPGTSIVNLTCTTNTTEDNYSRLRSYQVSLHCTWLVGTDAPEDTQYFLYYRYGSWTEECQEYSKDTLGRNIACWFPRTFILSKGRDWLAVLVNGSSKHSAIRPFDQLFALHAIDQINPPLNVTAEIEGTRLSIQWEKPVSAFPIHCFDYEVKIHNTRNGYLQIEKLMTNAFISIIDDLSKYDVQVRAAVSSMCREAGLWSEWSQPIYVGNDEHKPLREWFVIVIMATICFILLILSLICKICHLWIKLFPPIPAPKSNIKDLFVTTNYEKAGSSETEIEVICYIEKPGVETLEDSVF

B1: 9A2 (antibody, IgG4, V domains shown)
VH: EVQLLESGGGLVQPGGSLRLSCAASGFTFSHYHMLWVRQAPGKGLEWVSSIRSSGGFTYYADSVKGRFTISRDNSKNTLYLQMNSLRAEDTAVYYCARFYDSFFDIWGQGTMVTVSS
VL: DIQMTQSPSSVSASVGDRVTITCRASQGISSWLAWYQQKPGKAPKLLIYAASSLQSGVPSRFSGSGSGTDFTLTISSLQPEDFATYYCQQANSFPITFGQGTRLEIKR
notes: IgG4pK (IgG4 S241P, kappa); also called parental 9A2
- IC50 GM-CSF, TF-1 proliferation [1]: 456 nM
- IC50 IL-3, TF-1 proliferation [1]: 5.96 nM
- IC50 IL-5, TF-1 proliferation [1]: 1450 nM
- pStat5 IC50 GM-CSF, TF-1 bla reporter [1]: 40 nM
- pStat5 IC50 IL-3, TF-1 bla reporter [1]: 7.3 nM
- binding result [2]: no binding
- binding result [3]: no binding
- binding result [4]: no binding
